Laboratory results taken from patent US20080166345A1, “MEDICAMENTS COMPRISING GENE RECOMBINANT ANTIBODY AGAINST GANGLIOSIDE GD3” (KYOWA HAKKO KOGYO CO., LTD., priority 2001, published 2008).

Assay: GD3 binding ELISA of transient expression (COS-7) culture supernatants
Details: COS-7 culture supernatant; FIG. 14, FIG. 17
Procedure: Each ganglioside (2 nmol) was dissolved in […] of ethanol solution containing 10 μg of dipalmitoylphosphatidylcholine (manufactured by SIGMA) and 5 μg of cholesterol (manufactured by SIGMA). In each well of a 96 well plate for ELISA (manufactured by Greiner), 20 μl of the solution (becomes 20 pmol/well) or 20 μl of the solution diluted with ethanol was respectively dispensed, followed by air-drying, and then PBS containing 1% BSA (hereinafter referred to as “1% BSA-PBS”) was added in 100 μl/well and allowed to react at room temperature for 1 hour to thereby block remaining active groups. After discarding 1% BSA-PBS, culture supernatants of transformants or diluted solutions of humanized antibodies were added in 50 μl/well and allowed to react at room temperature for 1 hour. […] After the reaction and subsequent washing with Tween-PBS, an ABTS substrate solution (a solution prepared by dissolving 0.55 g of 2,2′-azinobis(3-ethylbenzothiazoline-6-sulfonic acid) in 1 L of 0.1 M citrate buffer (pH 4.2) and adding 1 μl/ml hydrogen peroxide just before the use) was added in 50 μl/well for color development and the absorbance at 415 nm (hereinafter referred to as “OD415”) was measured. […]

B1: pT641HLCDR: anti-GD3 CDR-grafted antibody by transient expression; VH hKM641H (SEQ ID NO:9), VL hKM641L (SEQ ID NO:10) (antibody, V domains shown)
VH: EVQLVESGGDFVQPGGSLRVSCAASGFAFSHYAMSWVRQAPGKGLEWVAYISSGGSGTYYSDSVKGRFTISRDNSKNTLYLQMRSLRAEDSAVYFCTRVKLGTYYFDSWGQGTLLTVSS
VL: DIQMTQSPSSLSASVGDRVTITCSASQDISNYLNWYQQKPDKAPKLLIFYSSNLHSGVPSRFSGGGSGTDYTLTISSLQPEDIATYFCHQYSKLPWTFGQGTKVEIKR
  relative activity (%) of binding to GD3 when the activity of anti-GD3 chimeric antibody is defined as 100: about 5%
